Measurements published in patent US20230045791A1 (published 2023).
Like-named read-outs stand apart in the source and are kept apart here.

T1: His-tagged recombinant human TNFR2 (human, UniProt P20333 23-257)
T1 chain: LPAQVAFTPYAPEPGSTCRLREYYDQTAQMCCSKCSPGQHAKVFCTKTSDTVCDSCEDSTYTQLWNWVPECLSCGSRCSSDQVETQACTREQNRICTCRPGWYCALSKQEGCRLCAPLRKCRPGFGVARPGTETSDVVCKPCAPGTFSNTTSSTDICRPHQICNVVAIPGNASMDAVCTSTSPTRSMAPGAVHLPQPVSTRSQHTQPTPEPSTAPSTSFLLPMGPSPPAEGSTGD

T2: human TNFR2 expressed on cells (CHO.hHFB3 / CHO.hTNFR2 cells; primary human T cells) (human, UniProt P20333 23-461)
T2 chain: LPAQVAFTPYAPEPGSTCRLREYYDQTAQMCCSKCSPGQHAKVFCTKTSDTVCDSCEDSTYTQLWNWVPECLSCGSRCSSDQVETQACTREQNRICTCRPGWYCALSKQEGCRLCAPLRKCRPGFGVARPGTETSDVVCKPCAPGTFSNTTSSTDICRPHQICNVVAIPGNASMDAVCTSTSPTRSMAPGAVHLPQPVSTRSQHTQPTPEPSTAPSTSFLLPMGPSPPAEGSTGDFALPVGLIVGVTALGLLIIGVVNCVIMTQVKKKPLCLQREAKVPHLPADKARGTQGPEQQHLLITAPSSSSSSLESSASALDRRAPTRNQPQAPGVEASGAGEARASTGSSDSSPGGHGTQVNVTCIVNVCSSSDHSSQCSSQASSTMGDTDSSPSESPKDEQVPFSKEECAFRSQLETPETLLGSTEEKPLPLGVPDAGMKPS

T3: rhesus monkey TNFR2 expressed on CHO cells (CHO.mkHFB3) (rhesus monkey, UniProt F7GUU0 22-457)
T3 chain: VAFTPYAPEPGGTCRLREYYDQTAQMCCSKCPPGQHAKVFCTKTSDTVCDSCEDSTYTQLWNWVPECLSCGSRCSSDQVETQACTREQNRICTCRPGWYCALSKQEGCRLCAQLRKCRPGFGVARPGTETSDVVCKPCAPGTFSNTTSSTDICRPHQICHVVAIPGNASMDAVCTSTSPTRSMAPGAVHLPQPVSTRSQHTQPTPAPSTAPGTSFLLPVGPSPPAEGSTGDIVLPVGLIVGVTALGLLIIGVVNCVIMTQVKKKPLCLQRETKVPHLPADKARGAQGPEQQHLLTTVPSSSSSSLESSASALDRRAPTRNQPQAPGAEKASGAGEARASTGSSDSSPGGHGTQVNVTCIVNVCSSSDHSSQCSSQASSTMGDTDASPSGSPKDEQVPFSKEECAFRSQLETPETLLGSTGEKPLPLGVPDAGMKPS


Key:
[1] = biological target: T1, His-tagged recombinant human TNFR2; assay: BLI (AHC biosensor)
[2] = biological target: T2, human TNFR2 expressed on cells …; assay: FACS cell binding; IgG1AA format
[3] = biological target: T2, human TNFR2 expressed on cells …; assay: FACS cell binding
[4] = biological target: T3, rhesus monkey TNFR2 expressed on CHO …; assay: FACS cell binding
[5] = biological target: T1, His-tagged recombinant human TNFR2; assay: ELISA
[6] = biological target: T3, rhesus monkey TNFR2 expressed on CHO …; assay: FACS cell binding
[7] = biological target: T1, His-tagged recombinant human TNFR2; assay: Octet BLI
[8] = biological target: T3, rhesus monkey TNFR2 expressed on CHO …; assay: FACS cell binding
[9] = biological target: T2, human TNFR2 expressed on cells …; assay: FACS cell binding; IgG1AA format
[10] = biological target: T2, human TNFR2 expressed on cells …; assay: FACS cell binding

Row | Binder | Kd [1] | EC50 [2] | EC50 [3] | EC50 [4] | EC50 [5] | EC50 [6] | Kd [7] | EC50 [8] | EC50 [9] | EC50 [10]
1 | HFB3-1-hG1 (mouse monoclonal antibody) (antibody, V domains shown) VH: EFQLQQSGPELVKPGASVKISCKASSYSFTDYNMNWVKQSNGKSLEWIGIIFPKYGTTSYNQKFKGKATLTVDQSSSTAYMQLNSLTSEDSAVYYCATDGGTWYFDVWGTGTTVTVSS VL: QIVLTQSPALMSASPGEKVTMTCSASSSVTYMYWYQQKPRSSPKPWIYLTSNLASGVPARFSGSGSGTSYSLTISSMEAEDAATYYCQQWSSNPPTFGSGTKLEIKR | 1.4 nM | 0.905 nM | 0.48 nM | 0.6 nM | 0.06 nM | 5.37 nM | 6.3 nM |  |  | 
2 | HFB3-18-hG1 (mouse monoclonal antibody) (antibody, V domains shown) VH: EVKLEESGGGLVQPGGSMKLSCAASGFTFSDAWMDWVRQSPEKGLEWVAEVRNKANNHATYYAESVKGRFTISRDDSKSSVYLQMNSLRAEDTGIYYCTRSVGGYGTTYWYFDVWGTGTTVTVSS VL: DIVMTQSPSSLSVSAGEKVTMSCKSSQNLLNSGNQKNYLAWYQQKPGQPPKLLIFGASTRESGVPDRFTGSGSGTDFTLTISSVQAEDLAVYYCQSEHSYPYTFGGGTKLEIKR | 4.2 nM |  | 4.17 nM | 4.85 nM | 49.8 nM |  |  |  |  | 
3 | HFB3-1hz6-hG1 (humanized monoclonal antibody) (antibody, V domains shown) VH: QVQLVQSGAELKKPGASVKVSCKASSYSFTDYNMNWVRQAPGQSLEWMGIIFPKYGTTSYAQKLQGRVTLTTDTSTSTAYMELRSLRSDDTAVYYCATDGGTWYFDVWGTGTTVTVSS VL: DIQLTQSPSFLSASVGDRVTITCRASSSVTYMYWYQQKPGKAPKPWIYLTSNLASGVPSRFSGSGSGTEYTLTISSLQPEDAATYYCQQWSSNPPTFGSGTKLEIKR |  | 4.07 nM |  |  |  | 19.1 nM | 15.2 nM |  |  | 
4 | HFB3-14hz1c-hG1 (humanized monoclonal antibody) (antibody, V domains shown) VH: QVQLVQSGAEVKKPGSSVKVSCKASGYTFTDYYMNWVRQAPGQGLEWMGDINPNDGGTTYAQKFQGRVTITADESTSTAYMELSSLRSEDTAVYFCAREGNYYAYDVRVWYFDVWGQGTTVTVSS VL: DIQMTQSPSSLSASVGDRVTITCGASQDIITYLNWYQQKPGKAVKLLIYSTSSLNSGVPSRFSGSGSGTDFTLTISSLQPEDFATYYCQQYSELPYTFGGGTKVELKR |  |  |  |  |  |  | 2.8 nM | 0.7 nM | 2.9 nM | 1.77 nM
5 | HFB3-14-hG1 (mouse monoclonal antibody) (antibody, V domains shown) VH: EVQLQQSGPELVKPGASVRISCKASGYTFTDYYMNWVKQSHGKSLEWIGDINPNDGGTTYSQKFKGKATLTVDKSSSTAYMELRSLTSEDSAVYFCAREGNYYAYDVRVWYFDVWGTGTTVTVSS VL: DIQMTQSPASLSVSVGETVTITCRSSENIYSNLAWYQQKQGKSPQLLVYAATNLADGVPSRFSGSGSGTQYSLKINSLQSEDFGSYYCQHFWGTPWTFGGGTKLEIKR |  |  |  | 2.13 nM |  |  |  | 2.15 nM |  | 
